Experimental data taken from patent US20240279318A1 (NANJING LEGEND BIOTECH, published 2024).
Where a chain is given by its changes, count along the chain named.

What was measured:
[1] = biological target: T1, AFP158/HLA-A*02:01 complex (human); assay: SPR, crude scFv captured, pMHC analyte
T1 construct: flowed as analyte in SPR
Experimental: (§1) The experiment was carried out as follows. The crude scFv protein were captured onto the sensorchip. Different concentrations (320, 160, 40 nM) of AFP158/HLA-A*02:01 complex flowed over the sensorchip surface, and were allowed to bind the antibody fragment for 100 s followed by injection of the running buffer to allow dissociation of the complex. On-rate (kd) and off-rate (kd) were calculated based on association and dissociation curve, and were used to estimate the equilibrium dissociation constant (KD).
(§2) The crude scFv muteins were then subjected to SPR affinity measurement by the method mentioned above.

[2] = biological target: T1, AFP158/HLA-A*02:01 complex; assay: SPR, crude scFv captured, pMHC analyte; remark: listed apart in the source
Experimental: as §1, §2

[3] = biological target: T1, AFP158/HLA-A*02:01 complex; assay: SPR, fold vs AS170036 VL1VH1
Experimental: as §1, §2

[4] = biological target: T1, AFP158/HLA-A*02:01 complex; assay: SPR, crude scFv captured, pMHC analyte; remark: listed apart in the source
Experimental: as §1

[5] = biological target: T1, AFP158/HLA-A*02:01 complex; assay: SPR, fold vs AS170036 VL1VH1; remark: listed apart in the source
Experimental: as §1, §2

[6] = biological target: T1, AFP158/HLA-A*02:01 complex; assay: SPR, fold vs AS170036 VL1VH1; remark: listed apart in the source
Experimental: as §1

[7] = biological target: T2, AFP158/HLA-A*02:01 complex (human); assay: SPR (BIAcore T200), crude scFv captured, complex flowed over
T2 construct: flowed over the chip as analyte; also called AFP158 peptide/HLA-A*02:01 complex
Experimental: as §1
The 84 muteins were then tested for their selectivity. The 12 recombinant AFP158 homologous peptides/HLA-A*02:01 complex were mixed in three groups (group 1: ZNF566 and ARNTL, group 2: CDC14A, PTP4A1, BRCA2 and RCL1, group 3: OR1I1, OR51B6, OR6C1, ATG9A, RP1 and NR2E1). The binding of the 84 antibodies to these complexes were then measured by method described above.

[8] = biological target: OR51B6 peptide/HLA-A*02:01 complex (recombinant) (human); assay: SPR
[9] = biological target: RCL1 peptide/HLA-A*02:01 complex (recombinant) (human, UniProt P16213 21-119 (Pongo pygmaeus entry)); assay: SPR
[10] = biological target: BRCA2 peptide/HLA-A*02:01 complex (recombinant) (human); assay: SPR
[11] = biological target: RP1 peptide/HLA-A*02:01 complex (recombinant) (human, UniProt P16213 21-119 (Pongo pygmaeus entry)); assay: SPR
[12] = biological target: NR2E1 peptide/HLA-A*02:01 complex (recombinant) (human); assay: SPR
[13] = biological target: OR1I1 peptide/HLA-A*02:01 complex (recombinant) (human); assay: SPR
[14] = biological target: ZNF566 peptide/HLA-A*02:01 complex (recombinant) (human); assay: SPR
[15] = biological target: CDC14A peptide/HLA-A*02:01 complex (recombinant) (human); assay: SPR
[16] = biological target: PTP4A1 peptide/HLA-A*02:01 complex (recombinant) (human); assay: SPR
[17] = biological target: T3, AFP158/HLA-A*02:01 complex (human); assay: SPR; vs AS170036 VL1VH1
T3 construct: biotinylated on the BSP by BirA for ELISA and panning; also called biotinylated AFP158/HLA-A*02:01 complex; Bio-AFP158

[18] = biological target: T3, AFP158/HLA-A*02:01 complex; assay: SPR, antibody captured via mIgG2a-Fc, complex as analyte
Experimental: The binding affinity between selected antibodies and AFP158/HLA-A*02:01 complex was determined by surface plasmon resonance (SPR) on a BIAcore T200 instrument (GE Healthcare). The experiment was carried out as follows. The purified sdAb/scFv-mIgG2aFc protein were captured through mIgG2a-Fc onto the sensorchip. […] On-rate (kₐ) and off-rate (kd) were calculated based on association and dissociation curve, and were used to estimate the equilibrium dissociation constant (KD).

B1: AS170036 VL1VH1 (scFv)
scFv: QSALTQPRSVSGSPGQSVTISCAGTSSDVGSENYVSWYQQHPGKAPKLMIYQVNKRASGVPDRFSGSKSGNTASLTISGLQAEDEADYYCASYRSSDHNIVFGGGTKLTVLGGGGSGGGGSGGGGSEVQLVESGGGLVQPGGSLRLSCAASGFTFSSYAMSWVRQAPGKGLEWVSTINSGTGSPYYADSVKGRFTISRDNSKNTLYLQMNSLRAEDTAVYYCAKNFFDGSWFLGPPAMDYWGQGTLVTVSSHHHHHH
notes: Crude scFv from E. coli TG1 supernatant; also called AS170036 VL1VH1 scFv
[1]
  Kd: 230 nM
  koff: 0.11 s⁻¹
  kon: 490000 M⁻¹ s⁻¹
[2]
  Kd: 230 nM
  koff: 0.11 s⁻¹
  kon: 490000 M⁻¹ s⁻¹
[3]
  Affinity increase: 1 fold
[4]
  Kd: 270 nM
  koff: 0.1 s⁻¹
  kon: 380000 M⁻¹ s⁻¹
[5]
  Affinity increase: 1 fold
[6]
  Affinity increase: 1 fold

B2: AS170036 VL1VH1 (scFv)
scFv: B1 scFv
notes: Crude scFv from E. coli TG1 supernatant, captured on the chip; also called AS170036 VL1VH1 scFv
[7]
  SPR binding level: 196 RU

B3: AS170036 VL1VH1-VLH98V (scFv)
scFv: B1 scFv with H98V
[4]
  Kd: 78 nM
  koff: 0.018 s⁻¹
  kon: 230000 M⁻¹ s⁻¹
[6]
  Affinity increase: 3.2 fold

B4: 16-AS170036 VL1VH1-56Y108A (scFv)
scFv: B1 scFv with G182Y, G234A
notes: Crude scFv mutein of AS170036 VL1VH1
[7]
  SPR binding level: 601 RU

B5: AS170036 VL1VH1-VLH98F (scFv)
scFv: B1 scFv with H98F
[8]
  binding result: no binding (tested: all below 3.5 RU)
[9]
  binding result: no binding (tested: all below 3.5 RU)
[10]
  binding result: no binding (tested: all below 3.5 RU)
[11]
  binding result: no binding (tested: all below 3.5 RU)
[12]
  binding result: no binding (tested: all below 3.5 RU)
[13]
  binding result: no binding (tested: all below 3.5 RU)
[14]
  binding result: no binding (tested: all below 3.5 RU)
[15]
  binding result: no binding (tested: all below 3.5 RU)
[16]
  binding result: no binding (tested: all below 3.5 RU)
[17]
  Affinity increase: > 2 fold

B6: 03-AS170036 VL1VH1-56Y98Q (scFv)
scFv: B1 scFv with H98Q, G182Y
notes: as for B4
[7]
  SPR binding level: 738 RU

B7: AS170036 VL1VH1-VLH98Q (scFv)
scFv: B1 scFv with H98Q
[4]
  Kd: 75 nM
  koff: 0.016 s⁻¹
  kon: 220000 M⁻¹ s⁻¹
[6]
  Affinity increase: 3.3 fold

B8: 45-AS170036 VL1VH1-56Y98I108S (scFv)
scFv: B1 scFv with H98I, G182Y, G234S
notes: as for B4
[7]
  SPR binding level: 689 RU

B9: 75-AS170036 VL1VH1-57K98Q108S (scFv)
scFv: B1 scFv with H98Q, S183K, G234S
notes: as for B4
[7]
  SPR binding level: 819 RU

B10: 34-AS170036 VL1VH1-98I108A (scFv)
scFv: B1 scFv with H98I, G234A
notes: as for B4
[7]
  SPR binding level: 559 RU

B11: AS170036 VL1VH1-VLH98P (scFv)
scFv: B1 scFv with H98P
[4]
  Kd: 70 nM
  koff: 0.017 s⁻¹
  kon: 240000 M⁻¹ s⁻¹
[6]
  Affinity increase: 3.5 fold

B12: AS170036 VL1VH1-VLH98I (scFv)
scFv: B1 scFv with H98I
[8]
  binding result: no binding (tested: all below 3.5 RU)
[9]
  binding result: no binding (tested: all below 3.5 RU)
[10]
  binding result: no binding (tested: all below 3.5 RU)
[11]
  binding result: no binding (tested: all below 3.5 RU)
[12]
  binding result: no binding (tested: all below 3.5 RU)
[13]
  binding result: no binding (tested: all below 3.5 RU)
[14]
  binding result: no binding (tested: all below 3.5 RU)
[15]
  binding result: no binding (tested: all below 3.5 RU)
[16]
  binding result: no binding (tested: all below 3.5 RU)
[17]
  Affinity increase: > 2 fold

B13: 67-AS170036 VL1VH1-57K98F108A (scFv)
scFv: B1 scFv with H98F, S183K, G234A
notes: as for B4
[7]
  SPR binding level: 686 RU

B14: 19-AS170036 VL1VH1-56N108A (scFv)
scFv: B1 scFv with G182N, G234A
notes: as for B4
[7]
  SPR binding level: 526 RU

B15: 22-AS170036 VL1VH1-57H108A (scFv)
scFv: B1 scFv with S183H, G234A
notes: as for B4
[7]
  SPR binding level: 571 RU

B16: 42-AS170036 VL1VH1-56Y98F108S (scFv)
scFv: B1 scFv with H98F, G182Y, G234S
notes: as for B4
[7]
  SPR binding level: 682 RU

B17: 27-AS170036 VL1VH1-57K108S (scFv)
scFv: B1 scFv with S183K, G234S
notes: as for B4
[7]
  SPR binding level: 627 RU

B18: 70-AS170036 VL1VH1-57K98I108A (scFv)
scFv: B1 scFv with H98I, S183K, G234A
notes: as for B4
[7]
  SPR binding level: 807 RU

B19: 15-AS170036 VL1VH1-57M98Q (scFv)
scFv: B1 scFv with H98Q, S183M
notes: as for B4
[7]
  SPR binding level: 554 RU

B20: 25-AS170036 VL1VH1-57K108A (scFv)
scFv: B1 scFv with S183K, G234A
notes: as for B4
[7]
  SPR binding level: 554 RU

B21: 48-AS170036 VL1VH1-56Y98Q108S (scFv)
scFv: B1 scFv with H98Q, G182Y, G234S
notes: as for B4
[7]
  SPR binding level: 817 RU

B22: 40-AS170036 VL1VH1-56Y98F108A (scFv)
scFv: B1 scFv with H98F, G182Y, G234A
notes: as for B4
[7]
  SPR binding level: 587 RU

B23: AS170036 VL1VH1-VLH98T (scFv)
scFv: B1 scFv with H98T
[4]
  Kd: 84 nM
  koff: 0.025 s⁻¹
  kon: 290000 M⁻¹ s⁻¹
[6]
  Affinity increase: 2.9 fold

B24: 49-AS170036 VL1VH1-56N98F108A (scFv)
scFv: B1 scFv with H98F, G182N, G234A
notes: as for B4
[7]
  SPR binding level: 604 RU

B25: 82-AS170036 VL1VH1-57M98Q108A (scFv)
scFv: B1 scFv with H98Q, S183M, G234A
notes: as for B4
[7]
  SPR binding level: 662 RU

B26: 43-AS170036 VL1VH1-56Y98I108A (scFv)
scFv: B1 scFv with H98I, G182Y, G234A
notes: as for B4
[7]
  SPR binding level: 664 RU

B27: 05-AS170036 VL1VH1-56N98I (scFv)
scFv: B1 scFv with H98I, G182N
notes: as for B4
[7]
  SPR binding level: 564 RU

B28: AS170036 VL1VH1-VLH98Q (scFv)
scFv: B1 scFv with H98Q
[8]
  binding result: no binding (tested: all below 3.5 RU)
[9]
  binding result: no binding (tested: all below 3.5 RU)
[10]
  binding result: no binding (tested: all below 3.5 RU)
[11]
  binding result: no binding (tested: all below 3.5 RU)
[12]
  binding result: no binding (tested: all below 3.5 RU)
[13]
  binding result: no binding (tested: all below 3.5 RU)
[14]
  binding result: no binding (tested: all below 3.5 RU)
[15]
  binding result: no binding (tested: all below 3.5 RU)
[17]
  Affinity increase: > 2 fold

B29: AS170036 VL1VH1-VLH98I (scFv)
scFv: B1 scFv with H98I
[4]
  Kd: 78 nM
  koff: 0.018 s⁻¹
  kon: 230000 M⁻¹ s⁻¹
[6]
  Affinity increase: 3.1 fold

B30: 10-AS170036 VL1VH1-57K98F (scFv)
scFv: B1 scFv with H98F, S183K
notes: as for B4
[7]
  SPR binding level: 614 RU

B31: AS167821 sdAb-mIgG2aFc (Fc fusion, not shown: a dimerising Fc or GST)
chain: QVRLVESGGGSVQAGGSLRLSCAASGRTYSTYCMGWFRQAPGKEREGVATIYIGSGRTYYVDSVKGRFTISQDNAKNTLYLQMNNLKPEDTAMYYCTADVDPYESSWSRGLGYWGQGTQVTVSS
notes: i647-labelled for flow cytometry
[18]
  Kd: 95 nM
  koff: 0.039 s⁻¹
  kon: 410000 M⁻¹ s⁻¹
